From patent US20230057602A1, “METHODS OF TREATMENT WITH ANTIBODIES AGAINST BCMA AND CD3” (BRISTOL-MYERS SQUIBB COMPANY, priority 2019, published 2023)

Columns and labels:
[1] = tested on: Relapsed/Refractory Multiple Myeloma (RRMM) patients; test: Clinical study of CC-93269 in RRMM: safety, cytokine release syndrome (CRS); assay type: in vivo, human
Protocol: CC-93269 (42-TCBcv), a bispecific antibody that specifically binds to BCMA bivalently and CD3 monovalently, was administered intravenously over 2 hours on Days 1, 8, 15, and 22 for Cycles 1-3; Days 1 and 15 for Cycles 4-6; and on Day 1 for Cycle 7 and beyond, all in 28-day cycles. […] 5 patients received a starting dose of 6 mg on Cycle 1 Day 1, followed by a dose of 10 mg on Cycle 1 Day 8 and thereafter (Cohort 7, n=5).
CRS prophylaxis was implemented with dexamethasone (up to 20 mg intravenous or equivalent) for the first dose and dose increases in patients receiving ≥6 mg. In Cohorts 1-4, dexamethasone was not used as a premedication.
Patients were monitored for clinical signs and symptoms associated with CRS (Lee, 2014) and CRS events were graded and treated according to the common CTCAE CRS grading scale (Lee, 2015).
CC-93269 was administered intravenously over 2 hours on Days 1, 8, 15, and 22 for Cycles 1-3; Days 1 and 15 for Cycles 4-6; and on Day 1 for Cycle 7 and beyond, all in 28-day cycles. Patients received a starting dose of 3 mg on Cycle 1 Day 1, followed by a dose of 6 mg on Cycle 1 Day 8 and thereafter.
Cohorts 8 (n=6) and 9 (n=5) differ in baseline multiple myeloma tumor burden based on percentage of bone marrow plasma cells and/or the presence of extramedullary disease (Cohort 8 including subjects with ≤50% bone marrow plasma cells [biopsy or aspirate] and ≤5 extramedullary lesions and Cohort 9 including subjects with >50% bone marrow plasma cells or >5 extramedullary lesions). Patients with lower (Cohort 8) and higher (Cohort 9) tumour burden were enrolled to evaluate possible differences in tolerability based on the rationale that the only patient of Cohorts 1-7 to experience Grade ≥3 CRS had extensive extramedullary disease at enrolment.
In Cohorts 8 and 9, all patients received dexamethasone (up to 20 mg intravenous or equivalent) as prophylaxis for CRS prior to the first dose, the second dose, any dose increase, and after dose interruption of more than 2 weeks occurring during Cycles 1 to 6. Patients were monitored, graded, and treated for CRS in the same way as for Cohorts 1-7 in Example 1.

[2] = Clinical study of CC-93269 in RRMM: pharmacokinetics (exposure); assay type: in vivo, human
Protocol: CC-93269 (42-TCBcv), a bispecific antibody that specifically binds to BCMA bivalently and CD3 monovalently, was administered intravenously over 2 hours on Days 1, 8, 15, and 22 for Cycles 1-3; Days 1 and 15 for Cycles 4-6; and on Day 1 for Cycle 7 and beyond, all in 28-day cycles. 14 patients received a fixed dose of CC-93269 at each of the intervals: 0.15 mg (Cohort 1, n=1), 0.5 mg (Cohort 2, n=1), 1.5 mg (Cohort 3, n=1), 3 mg (Cohort 4, n=4), 6 mg (Cohort 5, n=3) or 10 mg (Cohort 6, n=4). 5 patients received a starting dose of 6 mg on Cycle 1 Day 1, followed by a dose of 10 mg on Cycle 1 Day 8 and thereafter (Cohort 7, n=5).
This phenomenon was not observed at 3 mg doses.

[3] = tested on: KMS12-PE BCMA-expressing myeloma cell line; test: CC-93269-induced redirected lysis of KMS12-PE; assay type: cell-based, human; settings: E:T 1:1, 72 hours, 3 donors
Protocol: (§1) Four BCMA-expressing tumour cell lines purchased from ATCC (Manassa, Va.) (Multiple Myeloma cell lines: BCMA high-H-929 (catalog number CRL-9068), BCMA mid-SKMM2 and -MM.1S (catalog number ACC-430) and BCMA low-KMS12-PE (catalog number ACC-606)) were co-cultured with T-cells from 3 independent healthy donors (Bloodworks Northwest, Seattle, Wash.), at a E:T ratio of 1:1, i.e. 1 T cell: 1 myeloma cell. […]; 0.033-2.6 nM) for 72 hours.
(§2) FIG. 7 illustrates CC-93269-induced redirected lysis of BCMA+ tumour cell lines following co-culture with donor T cells from one healthy donor; results from all 3 independent healthy donors are summarised in Table 19. In 96-well round bottom plates and a final volume of 100 μL, 1×10^4 CellTrace Violet-labeled T-cells were plated with 1×10^4 CellTrace CFSE-labeled target cells, in the presence of varying concentrations of CC-93269 in combination with varying concentrations of dexamethasone (7-point dose response). The cocultures were incubated at 37° C. with 5% CO2. […] One-hundred percent viability was determined by the absolute cell count of live tumour cells at no addition of CC-93269 or dexamethasone; an absolute cell count of 0 live cells was used to define 100% killing of tumour cells. […] The IC50 values were calculated using non-linear regression analysis, sigmoidal dose-response using GraphPad Prism (version 5.0) software.

[4] = tested on: MM1S BCMA-expressing myeloma cell line; test: CC-93269-induced redirected lysis of MM1S; assay type: cell-based, human; settings: E:T 1:1, 72 hours, 3 donors
Protocol: as §1, §2

CC-93269: bispecific antibody that specifically binds to BCMA bivalently and CD3 monovalently; SEQ ID NO:48, 55, 56, 57 (2×)
patients who experienced CRS ([1]; 11 patients, 3/6 mg dose regimen (Cohorts 8 and 9)): 54.5%
subjects with Grade 2 or higher CRS events ([1]; 11 subjects receiving 3/6 mg): 18.2%
subjects with Grade 2 or higher CRS events ([1]; 12 subjects, 6 mg, 6/10 mg, or 10 mg doses): 50%
subjects who experienced CRS ([1]; 12 subjects, 6 mg, 6/10 mg, or 10 mg doses (Cohorts 5 to 7)): 100%
CRS, maximum Grade ([1]; Cohort 6, consecutive doses of 6 mg, all CRS events in Cycle 1): 2
CRS frequency or severity, higher versus lower tumor burden ([1]; Cohort 9 compared with Cohort 8): no increase observed
Grade 3 or higher CRS events ([1]; Cohorts 8 and 9): no Grade 3 or higher CRS events were reported
severity of CRS in comparison with Cohorts 5 to 7 ([1]; Cohorts 8 and 9): generally decreased
CRS events of Grade 1 ([1]; Cohorts 8 and 9, 8 events): 75%
CRS events of Grade 2 ([1]; Cohorts 8 and 9, 8 events): 25%
outcome of CRS events ([1]; Cohorts 8 and 9, tocilizumab and/or dexamethasone): resolved with standard treatments
death on study ([1]; One patient, 6 mg first dose and 10 mg on Cycle 1 Day 8 (Cohort 7)): died on the study in the setting of CRS
CRS events lasting more than 3 days ([1]; all cohorts 1 to 9): 4 of 36
CRS events occurring with the first dose on C1D1 ([1]; all cohorts 1 to 9): 73.3%
CRS events occurring with the second dose on C1D8 ([1]; all cohorts 1 to 9): 23.3%
duration of a CRS event, range ([1]; all cohorts 1 to 9): 1 to 7 days
maximum time to first onset of CRS ([1]; all cohorts 1 to 9): 3 days
median duration of a CRS event ([1]; all cohorts 1 to 9): 2 days
median time to first onset of CRS ([1]; all cohorts 1 to 9): 1 days
CRS events occurring with subsequent doses ([1]; all cohorts 1 to 9, limited to Grade ≤2 events): 2.7%
tolerability ([1]; consecutive doses of ≤3 mg, no CRS prophylactic): well-tolerated
Cytokine release syndrome, maximum Grade ([1]; fixed dose of ≤3 mg): 1
CRS Grade after the first dose ([1]; one patient of Cohort 7, Cycle 1 Day 1, 6 mg): 3
CRS Grade after the second dose ([1]; same patient of Cohort 7, Cycle 1 Day 8, 10 mg): 5
large increases in exposure after multiple doses ([2]; 3 mg doses): not observed
exposure after multiple doses ([2]; doses ≥6 mg): large increases in exposure
% live tumour cells, Mean ([3]; 1 μM Dex co-treatment): 5.8%
% live tumour cells, Mean ([3]; DMSO): 3.71%
% live tumour cells, Mean ([4]; 1 μM Dex co-treatment): 0.98%
% live tumour cells, Mean ([4]; DMSO): 1.5%
